This note sets out measurements from US20240301067A1 (WUXI BIOLOGICS IRELAND, published 2024).

In assay [1] the target is T1, Mouse PD-1 on 293F cells (mouse, UniProt Q02242 25-288).
T1 construct: whole, on cells; also called 293F.mPro1.B4; WBP305.293F.mPro1.B4
T1 sequence (looked up): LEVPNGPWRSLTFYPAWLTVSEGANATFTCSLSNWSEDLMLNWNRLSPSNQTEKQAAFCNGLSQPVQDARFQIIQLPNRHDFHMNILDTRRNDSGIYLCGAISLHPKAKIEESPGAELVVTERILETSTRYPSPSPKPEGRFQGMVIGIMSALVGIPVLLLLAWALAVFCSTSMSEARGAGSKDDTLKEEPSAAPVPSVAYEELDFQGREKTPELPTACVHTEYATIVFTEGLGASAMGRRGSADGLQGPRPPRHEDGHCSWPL
Nature of the assay: FACS on 293F.mPro1.B4 cells. On the procedure: The cells 293F.mPro1.B4 (2×10⁵ cells/well) were incubated with various concentrations of anti-PD-1 antibodies (3-fold serially diluted from 133.3 nM to 0.008 nM) at 4° C. for 1 hour. After washing with 1×PBS/1% BSA, the secondary antibody PE-labeled goat anti-human IgG was applied and incubated with cells at 4° C. for 1 hour. Human IgG4 isotype antibody was used as negative control. The cells were then washed and re-suspended in 1×PBS/1% BSA. MFI of the cells was measured by a flow cytometer and analyzed by FlowJo (version 7.6.1).

For assay [2], the target named is T1, Mouse PD-1 on 293F cells. The assay is described as follows: FACS competition on 293F.mPro1.B4 cells; competitor mProL1.ECD.mFc 5 µg/mL. On the procedure: The mouse PD-1 transfected 293F.mPro1.B4 cells were transferred into 96-well U-bottom plates at a density of 2×10⁵ cells/well. Various concentrations of anti-PD-1 antibodies (3-fold serially diluted from 1334 nM to 0.07 nM) and constant concentration of mouse Fc tagged mouse PD-L1 ECD protein (mProL1.ECD.mFc) (5 μg/mL) were pre-mixed and incubated with cells at 4° C. for 1 hour. After washing with 1×PBS/1% BSA, the secondary antibody PE-labeled goat anti-mouse IgG was applied and incubated with cells at 4° C. for 1 hour. The cells were then washed and resuspended in 1×PBS/1% BSA. MFI of the cells was measured by a flow cytometer and analyzed by FlowJo (version 7.6.1).

In assay [3] the target is T2, Human PD-1 on CHO-S cells (human, UniProt Q15116 25-288).
T2 construct: whole, on cells; also called CHO-S.hPro1.C6; WBP305.CHO-S.hPro1.C6
The assay is described as follows: FACS on CHO-S.hPro1.C6 cells. On the procedure:
The cells CHO-S.hPro1.C6 (2×10⁵ cells/well) were incubated with various concentrations of anti-PD-1 antibodies (4-fold serially diluted from 133.3 nM to 0.008 nM) at 4° C. for 1 hour. After washing with 1×PBS/1% BSA, the secondary antibody PE-labeled goat anti-human IgG was applied and incubated with cells at 4° C. for 1 hour. Anti-human PD-1 antibodies BMK1 and BMK3 were used as positive control. Human IgG4 isotype antibody was used as negative control. The cells were then washed and resuspended in 1×PBS/1% BSA. MFI of the cells was measured by a flow cytometer (BD) and analyzed by FlowJo (version 7.6.1).

In assay [4] the target is T3, Human ICOS extracellular domain, mFc tag (human, UniProt Q9Y6W8 21-140).
T3 construct: extracellular domain; also called hICOS.ECD.mFc; not shown: mouse Fc tag at C-terminus
T3 sequence (looked up): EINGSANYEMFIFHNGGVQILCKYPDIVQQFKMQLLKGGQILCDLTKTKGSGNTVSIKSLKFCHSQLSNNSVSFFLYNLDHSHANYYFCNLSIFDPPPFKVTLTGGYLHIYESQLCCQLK
The assay is described as follows: ELISA, coated antigen 1 ug/mL, antibody 100 nM, HRP goat anti-human IgG. On the procedure:
(§1) Plates were pre-coated with 1 μg/mL, 100 μL per well of hPD-1.ECD.mFc, hCD28.ECD.mFc, hCTLA-4.ECD.His, hICOS.ECD.mFc or hBTLA.ECD.His at 4° C. overnight. After 1-hour blocking using 200 μL of 1×PBS/2% BSA, testing antibodies were added to the plates at a concentration of 100 nM. The plates were incubated at ambient temperature for 1 hour. The binding of the antibodies to the immobilized proteins was detected by HRP-labeled goat anti-human IgG antibody. The color was developed by dispensing 100 μL of TMB substrate, and then stopped by 100 μL of 2N HCl. The absorbance was read at 450 nm and 540 nm using a microplate spectrophotometer.

Assay [5] concerns the target T4, Human CTLA-4 extracellular domain, His tag (human, UniProt P16410 36-161).
T4 construct: extracellular domain; also called hCTLA-4.ECD.His; not shown: 6xhis tag at C-terminus
T4 sequence (looked up): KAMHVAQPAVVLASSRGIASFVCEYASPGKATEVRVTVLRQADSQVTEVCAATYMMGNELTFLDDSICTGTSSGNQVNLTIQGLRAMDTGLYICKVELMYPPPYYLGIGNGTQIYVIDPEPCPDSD
The assay is described as above. On the procedure: as §1

The target of assay [6] is T5, Human BTLA extracellular domain, His (human, UniProt Q7Z6A9 31-157).
T5 construct: extracellular domain; Bought; also called hBTLA.ECD.His; not shown: His tag
T5 sequence (looked up): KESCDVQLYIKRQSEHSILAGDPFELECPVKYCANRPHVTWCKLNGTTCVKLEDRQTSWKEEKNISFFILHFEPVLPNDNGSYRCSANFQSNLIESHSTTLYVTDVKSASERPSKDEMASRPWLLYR
Described as above. On the procedure: as §1

The target in assay [7] is T6, Human CD28 extracellular domain, mFc tag (human, UniProt P10747 19-152).
T6 construct: extracellular domain; also called hCD28.ECD.mFc; not shown: mouse Fc tag at C-terminus
Described as above. On the procedure: as §1

T6 sequence (P10747 19-152): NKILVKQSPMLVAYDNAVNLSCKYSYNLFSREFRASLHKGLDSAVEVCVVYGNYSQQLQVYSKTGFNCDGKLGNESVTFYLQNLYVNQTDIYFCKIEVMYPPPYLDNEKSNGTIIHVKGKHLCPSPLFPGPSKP
T2 sequence (Q15116 25-288): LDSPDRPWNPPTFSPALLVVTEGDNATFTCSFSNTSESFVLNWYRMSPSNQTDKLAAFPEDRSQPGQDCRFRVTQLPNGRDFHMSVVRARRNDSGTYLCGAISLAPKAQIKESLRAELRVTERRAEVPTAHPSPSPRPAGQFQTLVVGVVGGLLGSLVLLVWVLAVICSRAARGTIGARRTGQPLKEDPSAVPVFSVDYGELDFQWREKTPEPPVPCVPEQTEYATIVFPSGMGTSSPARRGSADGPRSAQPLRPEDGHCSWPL

B1: W3056-AP17R1-2H2-FC(IgG4.SP) (Fc fusion)
chain: QVQLVESGGGLVQPGGSLRLSCAASDSIDSLVNMGWYRQAPGKQRELVALIANYITHYADFVKGRFTISRDAAKNTVNLQMSSLKPEDTAVYYCYARNIIVDYWGQGTQVTVSS
notes: VHH fused to Fc of human IgG4 S228P; also called W3056 lead parental antibody (VHH-Fc(hIgG4) fusion); not shown: Fc of human IgG4 (hIgG4.S228P)
Turning to B1, the EC50 with Mouse PD-1 on 293F cells [1] was found to be 4.77 nM; in assay [3] it was 1.87 nM. The molecule further showed an IC50 in the assay with Mouse PD-1 on 293F cells [2] of 22.1 nM. Also, the binding result in assay [4], in assay [5], in assay [6] and in assay [7] was “no binding (tested: 100 nM)” in each case.

B2: W3056-AP17R1-2H2-Z1-R1-14A1-FC(IgG4.SP) (Fc fusion)
chain: QVQLVESGGGVVQPGGSLRLSCAASDSIDSLVNMGWYRQAPGKQRELVALIATYITHYADFVKGRFTISRDNSKNTLYLQMNSLRAEDTAVYYCYARNIIVDYWGQGTLVTVSS
notes: also called W3056 lead antibody (VHH-Fc(hIgG4) fusion); not shown: Fc of human IgG4 (hIgG4.S228P)
As to B2, the EC50 in the assay with Mouse PD-1 on 293F cells [1] was found to be 4.26 nM; in assay [3], 0.612 nM. This molecule also registered an IC50 with Mouse PD-1 on 293F cells [2] of 10.2 nM. The binding result in assay [4], in assay [5], in assay [6] and in assay [7] was “no binding (tested: 100 nM)” in each case.

As a reminder, the EC50 is the concentration that produces a half-maximal response. The term IC50 denotes the midpoint of a concentration-inhibition curve. A high value points to weaker potency in that assay.
